Data set [1] deals with T1, Rrp4-exosome, Rrp4 KNK170ENQ (Sulfolobus solfataricus, UniProt Q9UXC4;Q9UXC2;Q9UXC0 1-249;1-248;1-275, M1S;M3S;K170E;K172Q).
T1 sequence 1: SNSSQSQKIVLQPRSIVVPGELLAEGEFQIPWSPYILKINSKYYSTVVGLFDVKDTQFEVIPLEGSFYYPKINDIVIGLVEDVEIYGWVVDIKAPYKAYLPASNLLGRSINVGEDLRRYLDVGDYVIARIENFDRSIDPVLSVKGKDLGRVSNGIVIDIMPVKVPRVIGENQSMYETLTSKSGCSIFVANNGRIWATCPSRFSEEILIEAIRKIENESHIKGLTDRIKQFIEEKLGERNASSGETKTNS
T1 sequence 2: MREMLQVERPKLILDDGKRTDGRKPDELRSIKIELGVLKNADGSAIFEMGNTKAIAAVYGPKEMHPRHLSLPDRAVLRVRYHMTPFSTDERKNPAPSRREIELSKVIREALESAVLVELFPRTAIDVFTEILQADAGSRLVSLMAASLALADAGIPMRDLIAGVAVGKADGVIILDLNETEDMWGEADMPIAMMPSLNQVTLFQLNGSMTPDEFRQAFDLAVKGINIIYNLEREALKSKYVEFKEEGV
T1 sequence 3: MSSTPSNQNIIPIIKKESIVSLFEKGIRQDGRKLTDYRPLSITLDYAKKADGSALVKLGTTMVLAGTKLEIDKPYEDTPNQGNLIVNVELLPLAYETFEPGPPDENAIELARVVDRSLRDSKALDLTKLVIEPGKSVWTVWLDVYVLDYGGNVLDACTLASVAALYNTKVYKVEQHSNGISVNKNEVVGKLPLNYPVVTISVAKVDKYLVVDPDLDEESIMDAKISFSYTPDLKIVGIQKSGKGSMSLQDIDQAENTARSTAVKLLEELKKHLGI
The data set can be described thus: NMR line-shape titration.

Data set [2] addresses T2, Rrp4-exosome, Rrp4 3MS K38M (Sulfolobus solfataricus, UniProt Q9UXC4;Q9UXC2;Q9UXC0 1-249;1-248;1-275, M1S;M3S;K38M).
T2 sequence 1: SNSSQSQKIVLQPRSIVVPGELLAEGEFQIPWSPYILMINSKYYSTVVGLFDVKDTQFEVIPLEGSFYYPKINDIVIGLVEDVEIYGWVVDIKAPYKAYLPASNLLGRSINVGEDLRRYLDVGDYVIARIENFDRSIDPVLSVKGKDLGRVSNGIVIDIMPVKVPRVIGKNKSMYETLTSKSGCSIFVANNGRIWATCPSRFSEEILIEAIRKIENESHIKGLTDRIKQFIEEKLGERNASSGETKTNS
T2 sequence 2: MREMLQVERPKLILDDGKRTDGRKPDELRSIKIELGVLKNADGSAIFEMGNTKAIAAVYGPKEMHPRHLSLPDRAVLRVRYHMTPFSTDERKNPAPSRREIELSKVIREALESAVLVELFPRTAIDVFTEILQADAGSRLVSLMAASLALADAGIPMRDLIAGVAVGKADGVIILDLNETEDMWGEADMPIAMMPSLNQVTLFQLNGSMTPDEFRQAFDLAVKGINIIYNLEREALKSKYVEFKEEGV
T2 sequence 3: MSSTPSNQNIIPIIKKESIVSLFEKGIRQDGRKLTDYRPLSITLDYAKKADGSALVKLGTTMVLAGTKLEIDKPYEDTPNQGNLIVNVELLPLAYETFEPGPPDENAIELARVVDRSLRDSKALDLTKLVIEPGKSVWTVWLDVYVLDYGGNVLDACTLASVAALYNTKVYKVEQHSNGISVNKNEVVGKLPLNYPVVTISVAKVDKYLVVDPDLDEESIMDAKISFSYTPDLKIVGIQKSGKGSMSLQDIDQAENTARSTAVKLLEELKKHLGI
Briefly: NMR methyl TROSY CSP.

The target in data set [3] is T3, Rrp4-exosome, Rrp4 3MS N171M (Sulfolobus solfataricus, UniProt Q9UXC4;Q9UXC2;Q9UXC0 1-249;1-248;1-275, M1S;M3S;N171M).
T3 sequence 1: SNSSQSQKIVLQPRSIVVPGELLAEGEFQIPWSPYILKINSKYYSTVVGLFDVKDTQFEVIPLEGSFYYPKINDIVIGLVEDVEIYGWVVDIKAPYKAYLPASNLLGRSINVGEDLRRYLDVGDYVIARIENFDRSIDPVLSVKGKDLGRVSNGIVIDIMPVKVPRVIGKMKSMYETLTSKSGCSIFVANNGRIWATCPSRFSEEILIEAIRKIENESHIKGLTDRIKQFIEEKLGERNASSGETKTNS
T3 sequence 2: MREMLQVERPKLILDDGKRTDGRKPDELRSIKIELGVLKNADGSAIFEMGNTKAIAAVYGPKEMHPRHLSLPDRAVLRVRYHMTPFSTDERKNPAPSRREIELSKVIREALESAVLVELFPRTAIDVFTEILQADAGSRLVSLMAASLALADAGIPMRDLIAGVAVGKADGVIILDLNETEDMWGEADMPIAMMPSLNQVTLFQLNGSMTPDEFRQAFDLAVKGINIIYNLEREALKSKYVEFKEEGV
T3 sequence 3: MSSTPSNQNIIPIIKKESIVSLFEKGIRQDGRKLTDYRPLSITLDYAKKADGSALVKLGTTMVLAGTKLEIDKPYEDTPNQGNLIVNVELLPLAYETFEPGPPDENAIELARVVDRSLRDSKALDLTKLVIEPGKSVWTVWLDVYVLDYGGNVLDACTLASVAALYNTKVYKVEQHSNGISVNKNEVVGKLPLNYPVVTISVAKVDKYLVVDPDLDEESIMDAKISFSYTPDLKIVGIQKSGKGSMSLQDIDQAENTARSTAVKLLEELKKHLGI
The data set can be described thus: NMR methyl TROSY CSP.

For data set [4], the target named is T4, Rrp4-exosome WT (Sulfolobus solfataricus, UniProt Q9UXC4;Q9UXC2;Q9UXC0 1-249;1-248;1-275).
T4 sequence 1: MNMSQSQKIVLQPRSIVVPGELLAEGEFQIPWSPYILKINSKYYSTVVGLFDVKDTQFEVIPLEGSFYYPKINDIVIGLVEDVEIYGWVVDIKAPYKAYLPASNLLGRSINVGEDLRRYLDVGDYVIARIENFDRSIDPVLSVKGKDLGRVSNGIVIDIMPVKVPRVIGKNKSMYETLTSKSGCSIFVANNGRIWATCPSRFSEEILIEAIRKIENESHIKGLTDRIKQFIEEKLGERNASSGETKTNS
T4 sequence 2: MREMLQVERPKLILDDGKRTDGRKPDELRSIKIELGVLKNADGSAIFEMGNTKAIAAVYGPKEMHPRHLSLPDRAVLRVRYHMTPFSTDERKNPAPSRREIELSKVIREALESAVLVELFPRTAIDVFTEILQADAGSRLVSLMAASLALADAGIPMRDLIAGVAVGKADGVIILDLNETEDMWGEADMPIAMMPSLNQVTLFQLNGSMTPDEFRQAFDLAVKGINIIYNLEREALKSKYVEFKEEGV
T4 sequence 3: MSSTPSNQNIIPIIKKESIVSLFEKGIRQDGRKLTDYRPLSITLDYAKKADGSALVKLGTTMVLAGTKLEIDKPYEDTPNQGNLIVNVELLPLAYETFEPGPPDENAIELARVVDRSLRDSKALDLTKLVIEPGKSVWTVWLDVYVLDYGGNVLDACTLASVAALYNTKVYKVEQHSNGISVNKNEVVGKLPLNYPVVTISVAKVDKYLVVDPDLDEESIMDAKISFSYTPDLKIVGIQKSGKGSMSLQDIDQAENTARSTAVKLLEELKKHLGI
The data set can be described thus: fluorescence anisotropy.

In data set [5] the target is T5, Sulfolobus solfataricus Rrp41-Rrp42 exosome core (Sulfolobus solfataricus, UniProt Q9UXC2 1-248; Q9UXC0 1-275).
T5 sequence 1: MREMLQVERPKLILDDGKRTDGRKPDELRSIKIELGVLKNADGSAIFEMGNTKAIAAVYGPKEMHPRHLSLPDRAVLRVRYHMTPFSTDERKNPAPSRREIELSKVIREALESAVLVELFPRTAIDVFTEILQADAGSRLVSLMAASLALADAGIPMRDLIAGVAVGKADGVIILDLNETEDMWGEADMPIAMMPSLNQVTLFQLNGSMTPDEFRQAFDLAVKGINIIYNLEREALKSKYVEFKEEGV
T5 sequence 2: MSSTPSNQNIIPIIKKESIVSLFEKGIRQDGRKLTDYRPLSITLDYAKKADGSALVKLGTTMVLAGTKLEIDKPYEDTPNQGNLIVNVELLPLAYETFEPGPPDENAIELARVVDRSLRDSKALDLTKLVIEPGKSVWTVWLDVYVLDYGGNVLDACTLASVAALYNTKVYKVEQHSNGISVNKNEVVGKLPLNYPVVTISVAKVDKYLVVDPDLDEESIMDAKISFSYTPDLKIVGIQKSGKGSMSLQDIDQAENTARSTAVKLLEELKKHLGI
The data set can be described thus: pull-down.

B1: NMR substrate RNA (hairpin-A32, cyclic phosphate) (structured_RNA)
RNA: GCCCCCCCCGAAAGGGGGGGGAAAAAAAAAAAAAAAAAAAAAAAAAAAAAAAA
modifications: 2'-3' cyclic phosphate at 3' end
On to B1, for which the Kd in data set [1] worked out at 60.5 ± 4.6 µM. The binding result in data set [2] and in data set [3] was “binds” throughout.

B2: long RNA (4-thio-U, fluorescein) (structured_RNA)
RNA: GCCCCCCCCGAAAGGGGGGGGAAAAAAAAAAAAAAAAAAAAAUAAAAAAAAAAAGCU
modifications: 4-thiouridine at the single U within the A tail (written U)
Consider B2, for which the Kd in data set [4] stood at 0.0675 ± 0.0227 µM.

B3: Sulfolobus solfataricus Rrp4 exosome cap protein (natural protein, UniProt Q9UXC4 1-249, looked up)
chain: MNMSQSQKIVLQPRSIVVPGELLAEGEFQIPWSPYILKINSKYYSTVVGLFDVKDTQFEVIPLEGSFYYPKINDIVIGLVEDVEIYGWVVDIKAPYKAYLPASNLLGRSINVGEDLRRYLDVGDYVIARIENFDRSIDPVLSVKGKDLGRVSNGIVIDIMPVKVPRVIGKNKSMYETLTSKSGCSIFVANNGRIWATCPSRFSEEILIEAIRKIENESHIKGLTDRIKQFIEEKLGERNASSGETKTNS
With B3, the binding result in data set [5] is listed as “binds”.

The record behind these values is article PMC5392361 (Nature chemical biology, 2017).
